Reference: PMC9482650, “Quantitative fragmentomics allow affinity mapping of interactomes” (Nature Communications, 2022)

T1: APBA2_1, Q99767
T1 sequence (Q99767 563-664, limits assumed, looked up): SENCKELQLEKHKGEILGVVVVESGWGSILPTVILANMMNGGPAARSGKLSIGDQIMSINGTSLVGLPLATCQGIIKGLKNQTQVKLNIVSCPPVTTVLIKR

T2: APBA2_2, Q99767
T2 sequence (Q99767 654-744, limits assumed, looked up): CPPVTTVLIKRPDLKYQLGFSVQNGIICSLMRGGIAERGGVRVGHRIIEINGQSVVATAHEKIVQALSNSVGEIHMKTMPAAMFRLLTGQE

T3: ARHGAP21, Q5T5U3
T3 sequence (Q5T5U3 45-169, limits assumed, looked up): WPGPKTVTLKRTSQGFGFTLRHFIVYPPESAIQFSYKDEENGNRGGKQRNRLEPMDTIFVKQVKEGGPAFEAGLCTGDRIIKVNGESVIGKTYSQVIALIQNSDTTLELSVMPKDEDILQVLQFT

T4: FRMPD1, Q5SYB0
T4 sequence (Q5SYB0 52-145, limits assumed, looked up): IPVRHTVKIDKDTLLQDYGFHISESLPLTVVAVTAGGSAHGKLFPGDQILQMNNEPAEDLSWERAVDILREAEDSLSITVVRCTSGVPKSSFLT

T5: GRIP1_3, Q9Y3R0
T5 sequence (Q9Y3R0 247-346, limits assumed, looked up): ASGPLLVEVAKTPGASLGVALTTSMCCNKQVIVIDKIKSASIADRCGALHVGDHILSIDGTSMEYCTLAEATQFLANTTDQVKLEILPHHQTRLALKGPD

T6: HTRA3, P83110
T6 sequence (P83110 354-453, limits assumed, looked up): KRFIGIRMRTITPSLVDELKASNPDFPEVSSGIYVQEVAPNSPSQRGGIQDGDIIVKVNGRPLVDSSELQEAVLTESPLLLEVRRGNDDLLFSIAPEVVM

T7: LNX2_3, Q8N448
T7 sequence (Q8N448 463-564, limits assumed, looked up): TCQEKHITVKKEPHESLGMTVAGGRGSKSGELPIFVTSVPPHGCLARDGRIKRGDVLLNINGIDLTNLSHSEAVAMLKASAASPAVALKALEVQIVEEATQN

T8: LRRC7, Q96NW7
T8 sequence (Q96NW7 1440-1537, limits assumed, looked up): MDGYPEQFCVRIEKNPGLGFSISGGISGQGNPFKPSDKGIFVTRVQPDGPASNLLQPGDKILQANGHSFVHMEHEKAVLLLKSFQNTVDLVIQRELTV

T9: NHERF3_3, Q5T2W1
T9 sequence (Q5T2W1 238-333, limits assumed, looked up): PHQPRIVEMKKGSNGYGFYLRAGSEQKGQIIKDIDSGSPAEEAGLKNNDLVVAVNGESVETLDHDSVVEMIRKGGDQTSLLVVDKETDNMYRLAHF

T10: NHERF3_4, Q5T2W1
T10 sequence (Q5T2W1 373-468, limits assumed, looked up): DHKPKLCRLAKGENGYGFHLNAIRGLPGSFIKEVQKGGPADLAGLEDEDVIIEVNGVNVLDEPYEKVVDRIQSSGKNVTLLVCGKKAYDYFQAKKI

T11: PDZD2_2, O15018
T11 sequence (O15018 329-429, limits assumed, looked up): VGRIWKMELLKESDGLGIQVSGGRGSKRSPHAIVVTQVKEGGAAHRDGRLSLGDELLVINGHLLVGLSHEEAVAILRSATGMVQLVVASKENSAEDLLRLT

T12: PDZD7_3, Q9H5P4
T12 sequence (Q9H5P4 857-944, limits assumed, looked up): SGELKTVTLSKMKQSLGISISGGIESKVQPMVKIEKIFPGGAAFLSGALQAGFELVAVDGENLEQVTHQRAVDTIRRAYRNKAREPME

T13: TJP3_3, O95049
T13 sequence (O95049 375-456, limits assumed, looked up): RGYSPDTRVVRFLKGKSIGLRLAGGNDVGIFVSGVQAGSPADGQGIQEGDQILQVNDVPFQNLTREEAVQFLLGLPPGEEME


What was measured:
Experiment in all cases: holdup assay
Parameters in all cases: key: below the threshold = too weak to quantify, mostly under pKd 3.1 to 4
Conditions in all cases: plain residues with an end cap or a label only (N-terminal biotin on a linker: ado-ado)
APBA2_1, Q99767 = target: T1, APBA2_1, Q99767
APBA2_2, Q99767 = target: T2, APBA2_2, Q99767
ARHGAP21, Q5T5U3 = target: T3, ARHGAP21, Q5T5U3
DLG1_1, Q12959 = target: DLG1_1, Q12959
DLG2_3, Q15700 = target: DLG2_3, Q15700
FRMPD1, Q5SYB0 = target: T4, FRMPD1, Q5SYB0
FRMPD3, Q5JV73 = target: FRMPD3, Q5JV73
GOPC, Q9HD26 = target: GOPC, Q9HD26
GRIP1_3, Q9Y3R0 = target: T5, GRIP1_3, Q9Y3R0
GRIP2_7, Q9C0E4 = target: GRIP2_7, Q9C0E4
HTRA3, P83110 = target: T6, HTRA3, P83110
IL16_3, Q14005 = target: IL16_3, Q14005
Inadl_3, Q8NI35 = target: Inadl_3, Q8NI35
Inadl_5, Q8NI35 = target: Inadl_5, Q8NI35
Inadl_9, Q8NI35 = target: Inadl_9, Q8NI35
LNX1_1, Q8TBB1 = target: LNX1_1, Q8TBB1
LNX2_3, Q8N448 = target: T7, LNX2_3, Q8N448
LRRC7, Q96NW7 = target: T8, LRRC7, Q96NW7
MAST1, Q9Y2H9 = target: MAST1, Q9Y2H9
NHERF3_3, Q5T2W1 = target: T9, NHERF3_3, Q5T2W1
NHERF3_4, Q5T2W1 = target: T10, NHERF3_4, Q5T2W1
PDZD2_2, O15018 = target: T11, PDZD2_2, O15018
PDZD7_3, Q9H5P4 = target: T12, PDZD7_3, Q9H5P4
TJP1_3, Q07157 = target: TJP1_3, Q07157
TJP3_3, O95049 = target: T13, TJP3_3, O95049

Inadl_5, Q8NI35, sequence (Q8NI35 673-780): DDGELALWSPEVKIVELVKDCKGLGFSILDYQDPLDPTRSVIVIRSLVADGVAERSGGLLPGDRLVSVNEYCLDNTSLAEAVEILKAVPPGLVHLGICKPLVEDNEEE
LNX1_1, Q8TBB1, sequence (Q8TBB1 261-371): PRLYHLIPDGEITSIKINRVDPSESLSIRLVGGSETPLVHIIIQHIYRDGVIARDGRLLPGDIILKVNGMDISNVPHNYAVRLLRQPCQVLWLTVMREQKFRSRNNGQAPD
TJP1_3, Q07157, sequence (Q07157 416-512): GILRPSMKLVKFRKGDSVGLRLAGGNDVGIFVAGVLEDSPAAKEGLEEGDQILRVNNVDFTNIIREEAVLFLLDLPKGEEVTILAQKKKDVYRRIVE
MAST1, Q9Y2H9, sequence (Q9Y2H9 962-1065): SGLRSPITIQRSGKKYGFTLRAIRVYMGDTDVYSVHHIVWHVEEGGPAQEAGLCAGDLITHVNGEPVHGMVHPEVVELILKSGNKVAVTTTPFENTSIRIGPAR
IL16_3, Q14005, sequence (Q14005 1107-1207): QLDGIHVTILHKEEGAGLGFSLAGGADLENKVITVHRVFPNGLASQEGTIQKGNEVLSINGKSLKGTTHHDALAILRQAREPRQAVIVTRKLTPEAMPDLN
Inadl_3, Q8NI35, sequence (Q8NI35 359-469): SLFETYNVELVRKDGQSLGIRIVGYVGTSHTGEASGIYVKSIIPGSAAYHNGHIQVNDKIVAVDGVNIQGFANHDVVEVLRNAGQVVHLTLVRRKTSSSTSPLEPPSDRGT
GRIP2_7, Q9C0E4, sequence (Q9C0E4 934-1023): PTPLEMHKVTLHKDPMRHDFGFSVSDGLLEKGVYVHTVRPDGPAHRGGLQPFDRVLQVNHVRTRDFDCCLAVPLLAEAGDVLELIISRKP
FRMPD3, Q5JV73, sequence (Q5JV73 12-100): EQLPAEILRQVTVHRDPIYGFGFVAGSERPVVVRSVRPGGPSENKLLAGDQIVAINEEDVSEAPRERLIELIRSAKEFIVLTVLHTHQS
Inadl_9, Q8NI35, sequence (Q8NI35 1530-1615): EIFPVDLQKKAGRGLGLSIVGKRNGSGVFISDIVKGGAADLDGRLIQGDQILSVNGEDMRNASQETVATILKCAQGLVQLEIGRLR

| pKd (APBA2_1, Q99767) | pKd (APBA2_2, Q99767) | pKd (ARHGAP21, Q5T5U3) | pKd (DLG1_1, Q12959) | pKd (DLG2_3, Q15700) | pKd (FRMPD1, Q5SYB0) | pKd (FRMPD3, Q5JV73) | pKd (GOPC, Q9HD26) | pKd (GRIP1_3, Q9Y3R0) | pKd (GRIP2_7, Q9C0E4) | pKd (HTRA3, P83110) | pKd (IL16_3, Q14005) | pKd (Inadl_3, Q8NI35) | pKd (Inadl_5, Q8NI35) | pKd (Inadl_9, Q8NI35) | pKd (LNX1_1, Q8TBB1) | pKd (LNX2_3, Q8N448) | pKd (LRRC7, Q96NW7) | pKd (MAST1, Q9Y2H9) | pKd (NHERF3_3, Q5T2W1) | Binder | also measured |
| --- | --- | --- | --- | --- | --- | --- | --- | --- | --- | --- | --- | --- | --- | --- | --- | --- | --- | --- | --- | --- | --- |
| below the threshold | below the threshold | below the threshold | below the threshold | 3.64 | below the threshold | 4.02 | below the threshold | below the threshold | below the threshold | 4.41 | below the threshold | below the threshold | below the threshold | below the threshold | below the threshold | below the threshold | below the threshold | 3.64 | below the threshold | KPDKQEEFYA [SDC3, O75056] | pKd (NHERF3_4, Q5T2W1): below the threshold; pKd (PDZD2_2, O15018): below the threshold; pKd (PDZD7_3, Q9H5P4): below the threshold; pKd (TJP1_3, Q07157): below the threshold; pKd (TJP3_3, O95049): below the threshold |
| below the threshold | below the threshold | 4.22 | below the threshold | below the threshold | below the threshold | below the threshold | 3.83 | below the threshold | below the threshold | below the threshold | below the threshold | below the threshold | below the threshold | 3.69 | 3.82 | below the threshold | below the threshold | 4.19 | 3.7 | DSEEELPTRL [GRK6, P43250] | pKd (NHERF3_4, Q5T2W1): 3.79; pKd (PDZD2_2, O15018): 3.71; pKd (PDZD7_3, Q9H5P4): 4.18; pKd (TJP1_3, Q07157): below the threshold; pKd (TJP3_3, O95049): below the threshold |
| below the threshold | below the threshold | 3.97 | 3.96 | below the threshold | below the threshold | below the threshold | below the threshold | below the threshold | below the threshold | 3.58 | below the threshold | below the threshold | below the threshold | below the threshold | below the threshold | below the threshold | below the threshold | 4.09 | below the threshold | KEKASTETEC [TRPM1, Q7Z4N2] | pKd (NHERF3_4, Q5T2W1): below the threshold; pKd (PDZD2_2, O15018): below the threshold; pKd (PDZD7_3, Q9H5P4): below the threshold; pKd (TJP1_3, Q07157): below the threshold; pKd (TJP3_3, O95049): below the threshold |
| below the threshold | below the threshold | below the threshold | below the threshold | 3.82 | below the threshold | below the threshold | below the threshold | below the threshold | below the threshold | below the threshold | below the threshold | below the threshold | below the threshold | below the threshold | 3.52 | below the threshold | below the threshold | 4.08 | below the threshold | QKASRNESTF [POLR1D, P0DPB6] | pKd (NHERF3_4, Q5T2W1): below the threshold; pKd (PDZD2_2, O15018): below the threshold; pKd (PDZD7_3, Q9H5P4): 3.71; pKd (TJP1_3, Q07157): below the threshold; pKd (TJP3_3, O95049): below the threshold |
| below the threshold | below the threshold | 4.17 | below the threshold | below the threshold | below the threshold | below the threshold | 3.55 | below the threshold | below the threshold | below the threshold | below the threshold | below the threshold | below the threshold | below the threshold | below the threshold | below the threshold | below the threshold | 4.67 | below the threshold | RDYTQSSSSL [GRM5, P41594] | pKd (NHERF3_4, Q5T2W1): 3.64; pKd (PDZD2_2, O15018): 3.83; pKd (PDZD7_3, Q9H5P4): below the threshold; pKd (TJP1_3, Q07157): below the threshold; pKd (TJP3_3, O95049): below the threshold |
